Laboratory results reported in patent publication US20070292409A1 (University of California, published 2007).

B1: G protein-coupled receptor kinase 2 (GRK2), endogenous protein of 3T3-L1 adipocytes (enzyme, UniProt Q99MK8 1-689, looked up)
chain: MADLEAVLADVSYLMAMEKSKATPAARASKKILLPEPSIRSVMQKYLEDRGEVTFEKIFSQKLGYLLFRDFCLNHLEEAKPLVEFYEEIKKYEKLETEEERVVRSREIFDSYIMKELLACSHPFSKNATEHVQGHLVKKQVPPDLFQPYIEEICQNLRGDVFQKFIESDKFTRFCQWKNVELNIHLTMNDFSVHRIIGRGGFGEVYGCRKADTGKMYAMKCLDKKRIKMKQGETLALNERIMLSLVSTGDCPFIVCMSYAFHTPDKLSFILDLMNGGDLHYHLSQHGVFSEADMRFYAAEIILGLEHMHNRFVVYRDLKPANILLDEHGHVRISDLGLACDFSKKRPHASVGTHGYMAPEVLQKGVAYDSSADWFSLGCMLFKLLRGHSPFRQHKTKDKHEIDRMTLTMAVELPDSFSPELRSLLEGLLQRDVNRRLGCLGRGAQEVKESPFFRSLDWQMVFLQKYPPPLIPPRGEVNAADAFDIGSFDEEDTKGIKLLDSDQELYRNFPLTISERWQQEVAETVFDTINAETDRLEARKKAKNKQLGHEEDYALGKDCIVHGYMSKMGNPFLTQWQRRYFYLFPNRLEWRGEGEAPQSLLTMEEIQSVEETQIKERKCLLLKIRGGKQFVLQCDSDPELVQWKKELRDAYREAQQLVQRVPKMKNKPRSPVVELSKVPLIQRGSANGL
notes: Precipitated from cell lysate with a rabbit polyclonal anti-GRK2 antibody; also called endogenous GRK2

Tests used:
[1] = molecular target: G protein-q/11 α-subunit (Gαq/11), endogenous protein of 3T3-L1 adipocytes (UniProt P21279)
[2] = molecular target: T1, insulin receptor, endogenous protein of 3T3-L1 adipocytes (UniProt P15208 28-1372, limits assumed); test: co-immunoprecipitation with anti-GRK2 antibody from 3T3-L1 adipocyte lysates
T1 construct: The mature receptor is made of alpha and beta chains; also called IR
T1 sequence (P15208 28-1372 limits assumed): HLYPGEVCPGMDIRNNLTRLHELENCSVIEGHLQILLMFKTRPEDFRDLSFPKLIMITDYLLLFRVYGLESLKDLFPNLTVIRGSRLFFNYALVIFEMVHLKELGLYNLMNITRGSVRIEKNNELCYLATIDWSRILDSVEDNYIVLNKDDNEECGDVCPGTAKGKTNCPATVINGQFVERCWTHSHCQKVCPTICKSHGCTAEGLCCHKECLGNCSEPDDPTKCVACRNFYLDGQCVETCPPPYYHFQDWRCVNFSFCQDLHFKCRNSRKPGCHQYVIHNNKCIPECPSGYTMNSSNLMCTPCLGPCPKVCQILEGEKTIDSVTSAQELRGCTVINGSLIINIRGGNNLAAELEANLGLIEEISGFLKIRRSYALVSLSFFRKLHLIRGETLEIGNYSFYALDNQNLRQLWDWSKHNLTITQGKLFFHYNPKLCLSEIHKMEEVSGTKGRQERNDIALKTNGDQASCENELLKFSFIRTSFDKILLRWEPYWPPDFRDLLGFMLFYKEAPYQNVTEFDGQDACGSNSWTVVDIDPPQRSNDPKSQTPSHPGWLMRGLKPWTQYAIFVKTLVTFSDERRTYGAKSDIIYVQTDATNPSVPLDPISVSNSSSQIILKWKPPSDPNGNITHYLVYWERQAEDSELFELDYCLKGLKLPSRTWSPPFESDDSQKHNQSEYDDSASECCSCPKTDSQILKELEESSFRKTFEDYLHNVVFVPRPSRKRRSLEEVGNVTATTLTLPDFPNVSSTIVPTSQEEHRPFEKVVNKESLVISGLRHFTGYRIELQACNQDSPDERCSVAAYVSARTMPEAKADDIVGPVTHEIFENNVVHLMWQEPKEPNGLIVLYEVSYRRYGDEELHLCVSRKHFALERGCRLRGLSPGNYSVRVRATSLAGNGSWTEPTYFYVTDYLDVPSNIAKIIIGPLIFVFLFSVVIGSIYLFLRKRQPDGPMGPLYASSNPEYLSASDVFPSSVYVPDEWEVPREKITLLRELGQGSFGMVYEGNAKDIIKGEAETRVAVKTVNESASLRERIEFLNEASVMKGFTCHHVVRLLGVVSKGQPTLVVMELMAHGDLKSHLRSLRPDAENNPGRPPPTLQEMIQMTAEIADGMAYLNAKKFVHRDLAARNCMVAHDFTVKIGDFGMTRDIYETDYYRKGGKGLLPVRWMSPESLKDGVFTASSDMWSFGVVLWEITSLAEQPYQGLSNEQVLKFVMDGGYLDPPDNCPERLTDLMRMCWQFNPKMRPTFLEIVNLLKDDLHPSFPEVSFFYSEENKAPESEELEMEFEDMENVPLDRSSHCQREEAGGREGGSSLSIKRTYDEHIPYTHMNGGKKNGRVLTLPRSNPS

G protein-q/11 α-subunit (Gαq/11), endogenous protein of 3T3-L1 adipocytes, sequence (P21279 whole entry): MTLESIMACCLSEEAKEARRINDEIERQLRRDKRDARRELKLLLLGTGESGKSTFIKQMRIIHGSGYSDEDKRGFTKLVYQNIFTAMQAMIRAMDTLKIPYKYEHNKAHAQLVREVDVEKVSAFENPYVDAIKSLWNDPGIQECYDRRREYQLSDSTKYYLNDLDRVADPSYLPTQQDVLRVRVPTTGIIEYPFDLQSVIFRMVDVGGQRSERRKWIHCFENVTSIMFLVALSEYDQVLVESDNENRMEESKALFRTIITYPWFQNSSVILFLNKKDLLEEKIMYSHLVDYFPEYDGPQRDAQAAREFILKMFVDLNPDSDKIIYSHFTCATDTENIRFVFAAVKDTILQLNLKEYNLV

Molecule	insulin-induced GLUT4 translocation after nuclear microinjection of the expression vector [1]	Gαq/11 tyrosine phosphorylation stimulated by ET-1 or insulin (PY20 immunoprecipitation, anti-Gαq/11 blot) [1]	insulin-induced Gαq/11 tyrosine phosphorylation (PY20 immunoprecipitation, anti-Gαq/11 blot) [1]	binding result [2]
deletion mutant of GRK2 lacking the RGS domain	overexpression of delta-GRK2 had no effect	–	–	–
kinase deficient (K220R) GRK2, overexpressed (adenovirus or plasmid vector)	overexpression of either WT- or KD-GRK2 by nuclear microinjection inhibited insulin-induced GLUT4 translocation	both WT- and KD-GRK2 overexpression inhibited Gαq/11 tyrosine phosphorylation stimulated by ET-1 or insulin	overexpression of either WT- or KD-GRK2 inhibited insulin-induced Gαq/11 tyrosine phosphorylation	–
wild type GRK2, overexpressed (adenovirus or plasmid vector)	overexpression of either WT- or KD-GRK2 by nuclear microinjection inhibited insulin-induced GLUT4 translocation	both WT- and KD-GRK2 overexpression inhibited Gαq/11 tyrosine phosphorylation stimulated by ET-1 or insulin	overexpression of either WT- or KD-GRK2 inhibited insulin-induced Gαq/11 tyrosine phosphorylation	–
B1	–	–	–	no binding
